2 proteins from paper PMC4688242 (Neurobiology of disease, 2015) can be followed below.

The data set deals with the molecule itself. As to the kind of experiment: SDS-PAGE and Western blot of SDS-resistant oligomers.

On to EASNCFAIRHFENKFAVETLICFNLFLNSQEKHY (N-terminal pyroglutamate (pE) in place of Glu1) [ADan pE (34-amino acid ADan amyloid peptide with N-terminal pyroglutamate)], for which the binding result is reported as “binds”.

For EASNCFAIRHFENKFAVETLICFNLFLNSQEKHY [ADan E (34-amino acid ADan amyloid peptide with N-terminal glutamate)], the binding result is “binds”.
